Assay results published in the Human Domainome abundance scans (Beltran et al. 2025).
± gives the uncertainty stated by the source.

B1: SWI/SNF complex subunit SMARCC1, residues 620 to 663; numbered along this chain, Q92922 (parent)
chain: GREWTEQETLLLLEALEMYKDDWNKVSEHVGSRTQDECILHFLR

Variants of: B1
Test: abundance fitness (aPCA) (normalised: wild type 0, dead -1); higher = more abundant; growth selection in yeast, the domain comes from the species named
Conditions: Homo sapiens

Variant | abundance fitness
GRWWTEQETLLLLEALEMYKDDWNKVSEHVGSRTQDECILHFLR | -0.674 ± 0.12
GRCWTEQETLLLLEALEMYKDDWNKVSEHVGSRTQDECILHFLR | -0.353 ± 0.14
GRAWTEQETLLLLEALEMYKDDWNKVSEHVGSRTQDECILHFLR | -0.04 ± 0.12
GRYWTEQETLLLLEALEMYKDDWNKVSEHVGSRTQDECILHFLR | 0.229 ± 0.11
GRDWTEQETLLLLEALEMYKDDWNKVSEHVGSRTQDECILHFLR | 0.311 ± 0.12
GRSWTEQETLLLLEALEMYKDDWNKVSEHVGSRTQDECILHFLR | 0.329 ± 0.084
GRVWTEQETLLLLEALEMYKDDWNKVSEHVGSRTQDECILHFLR | 0.312 ± 0.096
GRMWTEQETLLLLEALEMYKDDWNKVSEHVGSRTQDECILHFLR | -0.063 ± 0.13
GRLWTEQETLLLLEALEMYKDDWNKVSEHVGSRTQDECILHFLR | -0.03 ± 0.12
GRPWTEQETLLLLEALEMYKDDWNKVSEHVGSRTQDECILHFLR | 0.077 ± 0.11
GRGWTEQETLLLLEALEMYKDDWNKVSEHVGSRTQDECILHFLR | 0.158 ± 0.063
GRQWTEQETLLLLEALEMYKDDWNKVSEHVGSRTQDECILHFLR | 0.12 ± 0.12
GRFWTEQETLLLLEALEMYKDDWNKVSEHVGSRTQDECILHFLR | 0.178 ± 0.14
DREWTEQETLLLLEALEMYKDDWNKVSEHVGSRTQDECILHFLR | 0.277 ± 0.1
HREWTEQETLLLLEALEMYKDDWNKVSEHVGSRTQDECILHFLR | -0.147 ± 0.15
WREWTEQETLLLLEALEMYKDDWNKVSEHVGSRTQDECILHFLR | -0.293 ± 0.28
FREWTEQETLLLLEALEMYKDDWNKVSEHVGSRTQDECILHFLR | -0.122 ± 0.2
AREWTEQETLLLLEALEMYKDDWNKVSEHVGSRTQDECILHFLR | 0.081 ± 0.2
YREWTEQETLLLLEALEMYKDDWNKVSEHVGSRTQDECILHFLR | 0.191 ± 0.12
IREWTEQETLLLLEALEMYKDDWNKVSEHVGSRTQDECILHFLR | 0.128 ± 0.1

Variant | abundance fitness
RREWTEQETLLLLEALEMYKDDWNKVSEHVGSRTQDECILHFLR | -0.383 ± 0.12
GLEWTEQETLLLLEALEMYKDDWNKVSEHVGSRTQDECILHFLR | -0.719 ± 0.11
GVEWTEQETLLLLEALEMYKDDWNKVSEHVGSRTQDECILHFLR | 0.086 ± 0.1
GEEWTEQETLLLLEALEMYKDDWNKVSEHVGSRTQDECILHFLR | 0.145 ± 0.095
GKEWTEQETLLLLEALEMYKDDWNKVSEHVGSRTQDECILHFLR | 0.244 ± 0.067
GFEWTEQETLLLLEALEMYKDDWNKVSEHVGSRTQDECILHFLR | 0.253 ± 0.15
GQEWTEQETLLLLEALEMYKDDWNKVSEHVGSRTQDECILHFLR | -0.298 ± 0.35
GGEWTEQETLLLLEALEMYKDDWNKVSEHVGSRTQDECILHFLR | -0.051 ± 0.11
GYEWTEQETLLLLEALEMYKDDWNKVSEHVGSRTQDECILHFLR | -0.04 ± 0.097
GSEWTEQETLLLLEALEMYKDDWNKVSEHVGSRTQDECILHFLR | -0.147 ± 0.065
GWEWTEQETLLLLEALEMYKDDWNKVSEHVGSRTQDECILHFLR | -0.023 ± 0.13
GDEWTEQETLLLLEALEMYKDDWNKVSEHVGSRTQDECILHFLR | 0.237 ± 0.11
GCEWTEQETLLLLEALEMYKDDWNKVSEHVGSRTQDECILHFLR | 0.084 ± 0.14
GNEWTEQETLLLLEALEMYKDDWNKVSEHVGSRTQDECILHFLR | 0.288 ± 0.068
GAEWTEQETLLLLEALEMYKDDWNKVSEHVGSRTQDECILHFLR | 0.288 ± 0.12
GIEWTEQETLLLLEALEMYKDDWNKVSEHVGSRTQDECILHFLR | 0.415 ± 0.096
GTEWTEQETLLLLEALEMYKDDWNKVSEHVGSRTQDECILHFLR | 0.174 ± 0.077
GREETEQETLLLLEALEMYKDDWNKVSEHVGSRTQDECILHFLR | 0.023 ± 0.11
GREDTEQETLLLLEALEMYKDDWNKVSEHVGSRTQDECILHFLR | -0.168 ± 0.084
GREITEQETLLLLEALEMYKDDWNKVSEHVGSRTQDECILHFLR | 0.253 ± 0.18

Variant | abundance fitness
GRESTEQETLLLLEALEMYKDDWNKVSEHVGSRTQDECILHFLR | -0.08 ± 0.12
GREGTEQETLLLLEALEMYKDDWNKVSEHVGSRTQDECILHFLR | -0.153 ± 0.086
GREYTEQETLLLLEALEMYKDDWNKVSEHVGSRTQDECILHFLR | -0.23 ± 0.18
GREHTEQETLLLLEALEMYKDDWNKVSEHVGSRTQDECILHFLR | -0.4 ± 0.21
GREMTEQETLLLLEALEMYKDDWNKVSEHVGSRTQDECILHFLR | -0.141 ± 0.11
GREVTEQETLLLLEALEMYKDDWNKVSEHVGSRTQDECILHFLR | -0.147 ± 0.14
GRENTEQETLLLLEALEMYKDDWNKVSEHVGSRTQDECILHFLR | -0.265 ± 0.16
GRELTEQETLLLLEALEMYKDDWNKVSEHVGSRTQDECILHFLR | -0.285 ± 0.08
GRERTEQETLLLLEALEMYKDDWNKVSEHVGSRTQDECILHFLR | -0.084 ± 0.094
GREATEQETLLLLEALEMYKDDWNKVSEHVGSRTQDECILHFLR | -0.254 ± 0.17
GRETTEQETLLLLEALEMYKDDWNKVSEHVGSRTQDECILHFLR | -0.134 ± 0.23
GRECTEQETLLLLEALEMYKDDWNKVSEHVGSRTQDECILHFLR | -0.526 ± 0.16
GREWEEQETLLLLEALEMYKDDWNKVSEHVGSRTQDECILHFLR | 0.081 ± 0.1
GREWCEQETLLLLEALEMYKDDWNKVSEHVGSRTQDECILHFLR | -0.14 ± 0.14
GREWDEQETLLLLEALEMYKDDWNKVSEHVGSRTQDECILHFLR | -0.069 ± 0.13
GREWGEQETLLLLEALEMYKDDWNKVSEHVGSRTQDECILHFLR | -0.755 ± 0.11
GREWAEQETLLLLEALEMYKDDWNKVSEHVGSRTQDECILHFLR | -0.363 ± 0.12
GREWHEQETLLLLEALEMYKDDWNKVSEHVGSRTQDECILHFLR | -0.513 ± 0.14
